Assay results: patent US20210388110A1 (published 2021)

B1: TR01H083-E22Hh/none-Hi-Kn010G3/L0201-k0 (antibody, human IgG1, kappa, L234A L235A, N297A)
heavy: QVQLVESGGGLVQPGRSLRLSCAASGFTFSNAWMHWVRQAPGKGLEWVAQIKDKSNNYATYYAESVKGRFTISRADSKNSIYLQMNSLKTEDTAVYYCRYVHYAAGYGVDIWGQGTTVTVSSASTKGPSVFPLAPSSKSTSGGTAALGCLVKDYFPEPVTVSWNSGALTSGVHTFPAVLQSSGLYSLSSVVTVPSSSLGTQTYICNVNHKPSNTKVDKKVEPKSCDKTHTCPPCPAPEAAGGPSVFLFPPKPKDTLMISRTPEVTCVVVDVSHEDPEVKFNWYVDGVEVHNAKTKPREEQYASTYRVVSVLTVLHQDWLNGKEYKCKVSNKALPAPIEKTISKAKGQPREPQVYTLPPSRCELTKNQVSLSCAVKGFYPSDIAVEWESNGQPENNYKTTPPVLDSDGSFFLVSKLTVDKSRWQQGNVFSCSVMHEALHNHYTQKSLSLSPDYKDDDDK
chain: EPKSSDKTHTCPPCPAPELLGGPSVFLFPPKPKDTLMISRTPEVTCVVVDVSHEDPEVKFNWYVDGVEVHNAKTKPREEQYNSTYRVVSVLTVLHQDWLNGKEYKCKVSNKALPAPIEKTISKAKGQPREPQVCTLPPSRDELTKNQVSLWCLVKGFYPSDIAVEWESNGQPENNYKTTPPVLDSDGSFFLYSKLTVDKSRWQQGNVFSCSVMHEALHNRYTQKSLSLSP
light: DIVMTQSPLSLPVTPGEPASISCRSSQPPVHSNRNTYLHWYQQKPGQAPRLLIYKVSNRFSGVPDRFSGSGSGTDFTLKISRVEAEDVGVYYCGQGTQVPYTFGQGTKLEIKRTVAAPSVFIFPPSDEQLKSGTASVVCLLNNFYPREAKVQWKVDNALQSGNSQESVTEQDSKDSTYSLSSTLTLSKADYEKHKVYACEVTHQGLSSPVTKSFNRGEC
notes: single-arm
B2: TR01H083-E22Hh/none-Hi-Kn010G3/L0212-k0 (antibody, human IgG1, kappa, L234A L235A, N297A)
heavy: QVQLVESGGGLVQPGRSLRLSCAASGFTFSNAWMHWVRQAPGKGLEWVAQIKDKSNNYATYYAESVKGRFTISRADSKNSIYLQMNSLKTEDTAVYYCRYVHYAAGYGVDIWGQGTTVTVSSASTKGPSVFPLAPSSKSTSGGTAALGCLVKDYFPEPVTVSWNSGALTSGVHTFPAVLQSSGLYSLSSVVTVPSSSLGTQTYICNVNHKPSNTKVDKKVEPKSCDKTHTCPPCPAPEAAGGPSVFLFPPKPKDTLMISRTPEVTCVVVDVSHEDPEVKFNWYVDGVEVHNAKTKPREEQYASTYRVVSVLTVLHQDWLNGKEYKCKVSNKALPAPIEKTISKAKGQPREPQVYTLPPSRCELTKNQVSLSCAVKGFYPSDIAVEWESNGQPENNYKTTPPVLDSDGSFFLVSKLTVDKSRWQQGNVFSCSVMHEALHNHYTQKSLSLSPDYKDDDDK
chain: EPKSSDKTHTCPPCPAPELLGGPSVFLFPPKPKDTLMISRTPEVTCVVVDVSHEDPEVKFNWYVDGVEVHNAKTKPREEQYNSTYRVVSVLTVLHQDWLNGKEYKCKVSNKALPAPIEKTISKAKGQPREPQVCTLPPSRDELTKNQVSLWCLVKGFYPSDIAVEWESNGQPENNYKTTPPVLDSDGSFFLYSKLTVDKSRWQQGNVFSCSVMHEALHNRYTQKSLSLSP
light: DIVMTQSPLSLPVTPGEPASISCRPSQSPVHSNRNTYLHWYQQKPGQAPRLLIYKVSNRFSGVPDRFSGSGSGTDFTLKISRVEAEDVGVYYCYQGTQVPYTFGQGTKLEIKRTVAAPSVFIFPPSDEQLKSGTASVVCLLNNFYPREAKVQWKVDNALQSGNSQESVTEQDSKDSTYSLSSTLTLSKADYEKHKVYACEVTHQGLSSPVTKSFNRGEC
notes: single-arm
B3: TR01H083-E22Hh/none-Hi-Kn010G3/L0222-k0 (antibody, human IgG1, kappa, L234A L235A, N297A)
heavy: QVQLVESGGGLVQPGRSLRLSCAASGFTFSNAWMHWVRQAPGKGLEWVAQIKDKSNNYATYYAESVKGRFTISRADSKNSIYLQMNSLKTEDTAVYYCRYVHYAAGYGVDIWGQGTTVTVSSASTKGPSVFPLAPSSKSTSGGTAALGCLVKDYFPEPVTVSWNSGALTSGVHTFPAVLQSSGLYSLSSVVTVPSSSLGTQTYICNVNHKPSNTKVDKKVEPKSCDKTHTCPPCPAPEAAGGPSVFLFPPKPKDTLMISRTPEVTCVVVDVSHEDPEVKFNWYVDGVEVHNAKTKPREEQYASTYRVVSVLTVLHQDWLNGKEYKCKVSNKALPAPIEKTISKAKGQPREPQVYTLPPSRCELTKNQVSLSCAVKGFYPSDIAVEWESNGQPENNYKTTPPVLDSDGSFFLVSKLTVDKSRWQQGNVFSCSVMHEALHNHYTQKSLSLSPDYKDDDDK
chain: EPKSSDKTHTCPPCPAPELLGGPSVFLFPPKPKDTLMISRTPEVTCVVVDVSHEDPEVKFNWYVDGVEVHNAKTKPREEQYNSTYRVVSVLTVLHQDWLNGKEYKCKVSNKALPAPIEKTISKAKGQPREPQVCTLPPSRDELTKNQVSLWCLVKGFYPSDIAVEWESNGQPENNYKTTPPVLDSDGSFFLYSKLTVDKSRWQQGNVFSCSVMHEALHNRYTQKSLSLSP
light: DIVMTQSPLSLPVTPGEPASISCRSSQSPVHSNRNTYIQWYQQKPGQAPRLLIYKVSNRFSGVPDRFSGSGSGTDFTLKISRVEAEDVGVYYCYQGTQVPYTFGQGTKLEIKRTVAAPSVFIFPPSDEQLKSGTASVVCLLNNFYPREAKVQWKVDNALQSGNSQESVTEQDSKDSTYSLSSTLTLSKADYEKHKVYACEVTHQGLSSPVTKSFNRGEC
notes: single-arm
B4: TR01H083-E22Hh/none-Hi-Kn010G3/L0262-k0 (antibody, human IgG1, kappa, L234A L235A, N297A)
heavy: QVQLVESGGGLVQPGRSLRLSCAASGFTFSNAWMHWVRQAPGKGLEWVAQIKDKSNNYATYYAESVKGRFTISRADSKNSIYLQMNSLKTEDTAVYYCRYVHYAAGYGVDIWGQGTTVTVSSASTKGPSVFPLAPSSKSTSGGTAALGCLVKDYFPEPVTVSWNSGALTSGVHTFPAVLQSSGLYSLSSVVTVPSSSLGTQTYICNVNHKPSNTKVDKKVEPKSCDKTHTCPPCPAPEAAGGPSVFLFPPKPKDTLMISRTPEVTCVVVDVSHEDPEVKFNWYVDGVEVHNAKTKPREEQYASTYRVVSVLTVLHQDWLNGKEYKCKVSNKALPAPIEKTISKAKGQPREPQVYTLPPSRCELTKNQVSLSCAVKGFYPSDIAVEWESNGQPENNYKTTPPVLDSDGSFFLVSKLTVDKSRWQQGNVFSCSVMHEALHNHYTQKSLSLSPDYKDDDDK
chain: EPKSSDKTHTCPPCPAPELLGGPSVFLFPPKPKDTLMISRTPEVTCVVVDVSHEDPEVKFNWYVDGVEVHNAKTKPREEQYNSTYRVVSVLTVLHQDWLNGKEYKCKVSNKALPAPIEKTISKAKGQPREPQVCTLPPSRDELTKNQVSLWCLVKGFYPSDIAVEWESNGQPENNYKTTPPVLDSDGSFFLYSKLTVDKSRWQQGNVFSCSVMHEALHNRYTQKSLSLSP
light: DIVMTQSPLSLPVTPGEPASISCRSSQPPVHSNRNTYLHWYQQKPGQAPRLLIYKVSNRFSGVPDRFSGSGSGTDFTLKISRVEAEDVGVYYCAQGTQVPYTFGQGTKLEIKRTVAAPSVFIFPPSDEQLKSGTASVVCLLNNFYPREAKVQWKVDNALQSGNSQESVTEQDSKDSTYSLSSTLTLSKADYEKHKVYACEVTHQGLSSPVTKSFNRGEC
notes: single-arm
B5: TR01H084-E22Hh/none-Hi-Kn010G3/L0000-k0 (antibody, human IgG1, kappa, L234A L235A, N297A)
heavy: QVQLVESGGGVVQPGGSLRLSCAASGFTFSNAWMHWVRQAPGKGLEWVAQIKDKSQNYATYYAESVKGRFTISRADSKNSIYLQMNSLKTEDTAVYYCRYVHYAAGYGVDIWGQGTTVTVSSASTKGPSVFPLAPSSKSTSGGTAALGCLVKDYFPEPVTVSWNSGALTSGVHTFPAVLQSSGLYSLSSVVTVPSSSLGTQTYICNVNHKPSNTKVDKKVEPKSCDKTHTCPPCPAPEAAGGPSVFLFPPKPKDTLMISRTPEVTCVVVDVSHEDPEVKFNWYVDGVEVHNAKTKPREEQYASTYRVVSVLTVLHQDWLNGKEYKCKVSNKALPAPIEKTISKAKGQPREPQVYTLPPSRCELTKNQVSLSCAVKGFYPSDIAVEWESNGQPENNYKTTPPVLDSDGSFFLVSKLTVDKSRWQQGNVFSCSVMHEALHNHYTQKSLSLSPDYKDDDDK
chain: EPKSSDKTHTCPPCPAPELLGGPSVFLFPPKPKDTLMISRTPEVTCVVVDVSHEDPEVKFNWYVDGVEVHNAKTKPREEQYNSTYRVVSVLTVLHQDWLNGKEYKCKVSNKALPAPIEKTISKAKGQPREPQVCTLPPSRDELTKNQVSLWCLVKGFYPSDIAVEWESNGQPENNYKTTPPVLDSDGSFFLYSKLTVDKSRWQQGNVFSCSVMHEALHNRYTQKSLSLSP
light: DIVMTQSPLSLPVTPGEPASISCRSSQSLVHSNRNTYLHWYQQKPGQAPRLLIYKVSNRFSGVPDRFSGSGSGTDFTLKISRVEAEDVGVYYCGQGTQVPYTFGQGTKLEIKRTVAAPSVFIFPPSDEQLKSGTASVVCLLNNFYPREAKVQWKVDNALQSGNSQESVTEQDSKDSTYSLSSTLTLSKADYEKHKVYACEVTHQGLSSPVTKSFNRGEC
notes: single-arm

Biological target: T1, soluble human CD3ε chain (human, UniProt P07766 23-126, limits assumed)
T1 construct: the text says soluble human CD3ε chain; also called human CD3 epsilon chain
T1 sequence (P07766 23-126 limits assumed): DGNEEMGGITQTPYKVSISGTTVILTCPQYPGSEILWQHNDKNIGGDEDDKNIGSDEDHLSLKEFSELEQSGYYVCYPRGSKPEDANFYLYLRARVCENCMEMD
Assay: SPR (Biacore)

Compared with B1, B2 is 75-fold lower in Kd: 4.42 nM for the first, 0.0586 nM for the second.

Compared with B3, B4 is 3.8-fold lower in Kd: 9.42 nM for the first, 2.45 nM for the second.

For B5, the Kd was 21.3 nM.
